Test [1] concerns the target T1, carcinoembryonic antigen (CEA) (UniProt P06731 35-685, limits assumed, biotinylated (labelled form); unlabelled CEA (Calbiochem) used as competitor in the off-rate assays).
T1 construct: also called biotinylated-CEA; bio-CEA
T1 sequence (looked up): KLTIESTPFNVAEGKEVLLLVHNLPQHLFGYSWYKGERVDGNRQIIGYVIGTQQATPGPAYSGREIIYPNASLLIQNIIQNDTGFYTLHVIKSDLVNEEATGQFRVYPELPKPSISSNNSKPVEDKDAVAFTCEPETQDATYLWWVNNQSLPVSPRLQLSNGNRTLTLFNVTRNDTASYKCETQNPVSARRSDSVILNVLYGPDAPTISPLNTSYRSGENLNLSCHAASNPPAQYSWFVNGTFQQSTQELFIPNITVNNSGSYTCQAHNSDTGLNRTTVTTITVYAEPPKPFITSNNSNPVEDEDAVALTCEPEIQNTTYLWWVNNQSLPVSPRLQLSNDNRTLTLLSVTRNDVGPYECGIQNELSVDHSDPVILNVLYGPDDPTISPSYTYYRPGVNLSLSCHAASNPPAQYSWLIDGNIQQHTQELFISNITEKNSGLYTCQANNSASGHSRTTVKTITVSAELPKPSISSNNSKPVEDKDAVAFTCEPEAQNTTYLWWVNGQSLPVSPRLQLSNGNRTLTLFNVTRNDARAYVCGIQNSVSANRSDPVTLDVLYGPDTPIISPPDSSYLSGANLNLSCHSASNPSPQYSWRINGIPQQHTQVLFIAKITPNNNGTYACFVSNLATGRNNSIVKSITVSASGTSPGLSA
Kind of test: yeast surface display, off-rate analysis with biotinylated CEA and excess unlabelled CEA, flow cytometry. On the technique in general: In flow cytometry, cells or beads pass a laser one at a time.

Test [2] addresses T1, carcinoembryonic antigen (CEA). Nature of the test: yeast surface display, equilibrium titration with biotinylated CEA, flow cytometry.

B1: sm3E (scFv)
scFv: PYDVPDYALQASGGGGSGGGGSGGGGSASQVKLEQSGAEVVKPGASVKLSCKASGFNIKDSYMHWLRQGPGQRLEWIGWIDPENGDTEYAPKFQGKATFTTDTSANTAYLGLSSLRPEDTAVYYCNEGTPTGPYYFDYWGQGTLVTVSSGGGGSGGGGSGGGGSENVLTQSPSSMSVSVGDRVTIACSASSSVPYMHWLQQKPGKSPKLLIYLTSNLASGVPSRFSGSGSGTDYSLTISSVQPEDAATYYCQQRSSYPLTFGGGTKLEIKAAAGSEQKLISEEDL
notes: also called stabilized m3E
B1 had a koff in test [1] of 1.2e-06 s⁻¹. The molecule further returned a Kd in test [2] of 0.03 nM.

Broadly, the koff is the first-order rate constant of dissociation. Low readings indicate a long-lived complex, high ones a short-lived complex. Broadly, the Kd is the constant that tells how readily two partners part at equilibrium.

These data come from patent US20050147614A1 (CANCER RESEARCH TECHNOLOGY, published 2005).
